Reference: publication PMC11157650

Legend:
[1] = biological target: Fc part of the IgM protomer left after IgMBRAZOR cleavage (two mu chain fragments from Ala344 to the C-terminus) (human); assay: SEC + native MS; online SEC-Orbitrap-based CDMS of IgM co-expressed with the J-chain, undigested or digested with IgMBRAZOR; sample in PBS, 0.5 μg injected; mobile phase 100 mM ammonium acetate pH 6.8; the oligomer is held by disulfide bonds
[2] = biological target: Recombinant anti-StrepTag IgM protomer (two mu heavy chains and two kappa light chains); assay: as above

stoichiometry N [1]	stoichiometry N [2]	Molecule
5	–	Fc part of the IgM protomer left after IgMBRAZOR cleavage (two mu chain fragments from Ala344 to the C-terminus) (domain or fragment)
–	5	Recombinant anti-StrepTag IgM protomer (two mu heavy chains and two kappa light chains) (antibody, V domains shown) VH: EVQLEQSGPELVKPGASVKMSCKASGYTFTNYYMKWVKQSHGKSLEWIGDLNPNNGDTFYNQKFKGKATLTVDKSSNTAYMQLNSLTSEDSAVYYCARTGRYEENAMDYWGQGTSVTVSS VL: ELVMTQSPASLAVSLGQRATISCRASESVDSYGKSFMHWYQLKPGQPPKLLIYRASNLESGVPARFSGSGSRTDFTLTIDPVEADDAATYYCQQNNEDPWTFGGGTKLEIK
